Test results: article PMC9482650, “Quantitative fragmentomics allow affinity mapping of interactomes” (Nature Communications, 2022)

What was measured:
Test in all cases: holdup assay
Parameters in all cases: key: below the threshold = too weak to quantify, mostly under pKd 3.1 to 4
LNX1_3, Q8TBB1 = target: LNX1_3, Q8TBB1
LDB3, O75112 = target: LDB3, O75112
SNTB1, Q13884 = target: T1, SNTB1, Q13884
T1 sequence (Q13884 107-205, limits assumed, looked up): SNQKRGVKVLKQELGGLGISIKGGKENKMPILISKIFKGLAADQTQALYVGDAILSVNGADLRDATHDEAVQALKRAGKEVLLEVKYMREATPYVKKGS

DLG3_1, Q92796 = target: T2, DLG3_1, Q92796
T2 sequence (Q92796 125-227, limits assumed, looked up): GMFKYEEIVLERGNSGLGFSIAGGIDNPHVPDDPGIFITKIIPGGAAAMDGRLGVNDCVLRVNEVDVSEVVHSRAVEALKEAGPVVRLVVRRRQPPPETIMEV

LIN7B, Q9HAP6 = target: T3, LIN7B, Q9HAP6
T3 sequence (Q9HAP6 88-185, limits assumed, looked up): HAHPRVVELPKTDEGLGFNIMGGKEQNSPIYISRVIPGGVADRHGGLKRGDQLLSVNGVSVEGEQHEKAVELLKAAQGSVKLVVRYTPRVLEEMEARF

MPP6, Q9NZW5 = target: T4, MPP6, Q9NZW5
T4 sequence (Q9NZW5 125-219, limits assumed, looked up): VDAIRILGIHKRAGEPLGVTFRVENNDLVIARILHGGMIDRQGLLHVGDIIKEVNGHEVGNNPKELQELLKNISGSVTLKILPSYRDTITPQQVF

ARHGEF12, Q9NZN5-2 = target: ARHGEF12, Q9NZN5-2
Chain of ARHGEF12, Q9NZN5-2 (Q9NZN5 other isoform, or with tags, fused parts or gaps): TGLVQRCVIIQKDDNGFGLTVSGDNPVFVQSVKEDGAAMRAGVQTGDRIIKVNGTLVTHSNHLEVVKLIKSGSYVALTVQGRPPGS

NHERF3_1, Q5T2W1 = target: T5, NHERF3_1, Q5T2W1
T5 sequence (Q5T2W1 4-100, limits assumed, looked up): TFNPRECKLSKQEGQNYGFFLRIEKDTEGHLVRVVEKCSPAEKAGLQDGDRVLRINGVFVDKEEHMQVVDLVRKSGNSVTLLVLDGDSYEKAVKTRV

DLG2_2, Q15700 = target: DLG2_2, Q15700
TJP1_2, Q07157 = target: TJP1_2, Q07157
Chain of TJP1_2, Q07157 (Q07157 181-274): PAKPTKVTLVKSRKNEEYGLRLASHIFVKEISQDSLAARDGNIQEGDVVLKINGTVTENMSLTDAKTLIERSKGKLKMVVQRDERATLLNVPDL

LRRC7, Q96NW7 = target: T6, LRRC7, Q96NW7
T6 sequence (Q96NW7 1440-1537, limits assumed, looked up): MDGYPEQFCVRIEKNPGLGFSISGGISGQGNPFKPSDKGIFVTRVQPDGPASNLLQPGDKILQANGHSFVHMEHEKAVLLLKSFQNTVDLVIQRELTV

GRIP2_6, Q9C0E4 = target: GRIP2_6, Q9C0E4
Chain of GRIP2_6, Q9C0E4 (Q9C0E4 648-740): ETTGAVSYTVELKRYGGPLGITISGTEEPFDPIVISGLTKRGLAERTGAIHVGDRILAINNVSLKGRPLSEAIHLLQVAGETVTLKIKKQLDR

DLG2_3, Q15700 = target: DLG2_3, Q15700
PDZRN3_1, Q9UPQ7 = target: T7, PDZRN3_1, Q9UPQ7
T7 sequence (Q9UPQ7 244-349, limits assumed, looked up): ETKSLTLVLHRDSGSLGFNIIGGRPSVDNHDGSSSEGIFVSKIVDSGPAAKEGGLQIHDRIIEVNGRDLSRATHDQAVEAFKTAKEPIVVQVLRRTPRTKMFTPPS

GRIP2_3, Q9C0E4 = target: GRIP2_3, Q9C0E4
Chain of GRIP2_3, Q9C0E4 (Q9C0E4 238-339): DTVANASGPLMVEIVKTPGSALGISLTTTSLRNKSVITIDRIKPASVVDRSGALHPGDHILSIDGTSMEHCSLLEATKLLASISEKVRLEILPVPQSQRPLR

NHERF3_4, Q5T2W1 = target: T8, NHERF3_4, Q5T2W1
T8 sequence (Q5T2W1 373-468, limits assumed, looked up): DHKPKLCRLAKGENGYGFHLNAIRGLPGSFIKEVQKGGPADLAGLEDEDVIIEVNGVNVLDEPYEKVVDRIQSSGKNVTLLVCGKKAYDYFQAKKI

HTRA4, P83105 = target: T9, HTRA4, P83105
T9 sequence (P83105 378-476, limits assumed, looked up): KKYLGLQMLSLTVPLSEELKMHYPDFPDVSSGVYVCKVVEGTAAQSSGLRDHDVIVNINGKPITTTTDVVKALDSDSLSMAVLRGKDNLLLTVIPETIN

FRMPD2_1, Q68DX3 = target: FRMPD2_1, Q68DX3
Chain of FRMPD2_1, Q68DX3 (Q68DX3 770-861): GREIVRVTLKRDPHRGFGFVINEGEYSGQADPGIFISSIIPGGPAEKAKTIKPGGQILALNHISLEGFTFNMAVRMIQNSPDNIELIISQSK

SCRIB_2, Q14160 = target: SCRIB_2, Q14160
Chain of SCRIB_2, Q14160 (Q14160 857-960): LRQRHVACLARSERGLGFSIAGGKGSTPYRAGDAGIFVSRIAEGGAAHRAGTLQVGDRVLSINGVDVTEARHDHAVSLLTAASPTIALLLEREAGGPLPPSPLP

PDLIM1, O00151 = target: PDLIM1, O00151
Chain of PDLIM1, O00151 (O00151 1-87): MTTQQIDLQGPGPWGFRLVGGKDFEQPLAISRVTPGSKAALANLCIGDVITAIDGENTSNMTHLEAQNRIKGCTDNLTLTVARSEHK

TX1BP3, O14907 = target: T10, TX1BP3, O14907
T10 sequence (O14907 10-122, limits assumed, looked up): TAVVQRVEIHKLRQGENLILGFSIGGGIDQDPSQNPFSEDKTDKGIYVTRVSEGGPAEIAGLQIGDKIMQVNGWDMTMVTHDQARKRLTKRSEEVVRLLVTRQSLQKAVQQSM

Inadl_1, Q8NI35 = target: Inadl_1, Q8NI35
Chain of Inadl_1, Q8NI35 (Q8NI35 113-229): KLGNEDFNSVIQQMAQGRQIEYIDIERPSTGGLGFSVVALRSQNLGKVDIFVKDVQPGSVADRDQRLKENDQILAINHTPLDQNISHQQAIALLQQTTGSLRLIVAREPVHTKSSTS

GORASP2, Q9H8Y8 = target: GORASP2, Q9H8Y8
GRIP2_5, Q9C0E4 = target: GRIP2_5, Q9C0E4
Chain of GRIP2_5, Q9C0E4 (Q9C0E4 544-642): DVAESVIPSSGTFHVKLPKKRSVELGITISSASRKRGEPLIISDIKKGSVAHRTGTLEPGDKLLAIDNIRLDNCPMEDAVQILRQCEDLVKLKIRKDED

MAST2, Q6P0Q8 = target: MAST2, Q6P0Q8
Chain of MAST2, Q6P0Q8 (Q6P0Q8 1099-1202): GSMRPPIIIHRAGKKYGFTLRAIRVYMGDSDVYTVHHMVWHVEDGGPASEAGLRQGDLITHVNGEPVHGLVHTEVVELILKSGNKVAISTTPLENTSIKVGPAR

MPP2, Q14168 = target: T11, MPP2, Q14168
T11 sequence (Q14168 180-250, limits assumed, looked up): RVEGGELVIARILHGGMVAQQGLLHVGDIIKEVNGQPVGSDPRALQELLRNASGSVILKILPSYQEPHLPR

[1] = plain residues with an end cap or a label only (N-terminal biotin on a linker: ttds)
[2] = plain residues with an end cap or a label only (N-terminal biotin on a linker: ahx)

Chain of LNX1_3, Q8TBB1 (Q8TBB1 500-596): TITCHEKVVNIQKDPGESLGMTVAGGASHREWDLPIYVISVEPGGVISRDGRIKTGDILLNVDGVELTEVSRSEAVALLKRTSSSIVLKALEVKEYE
Chain of LDB3, O75112 (O75112 1-94): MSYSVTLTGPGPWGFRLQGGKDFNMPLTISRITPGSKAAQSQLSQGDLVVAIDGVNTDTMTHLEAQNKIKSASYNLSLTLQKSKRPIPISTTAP

DPRNTQTSQI [ABRAXAS2, Q15018]
pKd (LNX1_3, Q8TBB1; [1]): below the threshold
pKd (LDB3, O75112; [1]): below the threshold
pKd (SNTB1, Q13884; [1]): 3.96
pKd (DLG3_1, Q92796; [1]): 3.56
pKd (LIN7B, Q9HAP6; [1]): below the threshold
pKd (MPP6, Q9NZW5; [1]): below the threshold
pKd (ARHGEF12, Q9NZN5-2; [1]): 4.44
pKd (NHERF3_1, Q5T2W1; [1]): 3.91
pKd (DLG2_2, Q15700; [1]): below the threshold
pKd (TJP1_2, Q07157; [1]): below the threshold
pKd (LRRC7, Q96NW7; [1]): below the threshold
pKd (GRIP2_6, Q9C0E4; [1]): below the threshold
pKd (DLG2_3, Q15700; [1]): 3.53
pKd (PDZRN3_1, Q9UPQ7; [1]): 3.54
pKd (GRIP2_3, Q9C0E4; [1]): 3.6
pKd (NHERF3_4, Q5T2W1; [1]): below the threshold
pKd (HTRA4, P83105; [1]): 3.48
pKd (FRMPD2_1, Q68DX3; [1]): below the threshold
pKd (SCRIB_2, Q14160; [1]): below the threshold
pKd (PDLIM1, O00151; [1]): below the threshold
pKd (TX1BP3, O14907; [1]): 3.71
pKd (Inadl_1, Q8NI35; [1]): 3.72
pKd (GORASP2, Q9H8Y8; [1]): below the threshold
pKd (GRIP2_5, Q9C0E4; [1]): below the threshold
pKd (MAST2, Q6P0Q8; [1]): 4.55
pKd (MPP2, Q14168; [1]): below the threshold

RTRQRNETQV [HPV51-E6, P26554]
pKd (LNX1_3, Q8TBB1; [1]): below the threshold
pKd (LDB3, O75112; [1]): below the threshold
pKd (SNTB1, Q13884; [1]): 4.09
pKd (DLG3_1, Q92796; [1]): 4.28
pKd (LIN7B, Q9HAP6; [1]): below the threshold
pKd (MPP6, Q9NZW5; [1]): below the threshold
pKd (ARHGEF12, Q9NZN5-2; [1]): 3.73
pKd (NHERF3_1, Q5T2W1; [1]): 4.17
pKd (DLG2_2, Q15700; [1]): 4.97
pKd (TJP1_2, Q07157; [1]): below the threshold
pKd (LRRC7, Q96NW7; [1]): below the threshold
pKd (GRIP2_6, Q9C0E4; [1]): below the threshold
pKd (DLG2_3, Q15700; [1]): 4.75
pKd (PDZRN3_1, Q9UPQ7; [1]): 4.06
pKd (GRIP2_3, Q9C0E4; [1]): below the threshold
pKd (NHERF3_4, Q5T2W1; [1]): below the threshold
pKd (HTRA4, P83105; [1]): below the threshold
pKd (FRMPD2_1, Q68DX3; [1]): below the threshold
pKd (SCRIB_2, Q14160; [1]): 4.39
pKd (PDLIM1, O00151; [1]): below the threshold
pKd (TX1BP3, O14907; [1]): 4.13
pKd (Inadl_1, Q8NI35; [1]): below the threshold
pKd (GORASP2, Q9H8Y8; [1]): 4.65
pKd (GRIP2_5, Q9C0E4; [1]): below the threshold
pKd (MAST2, Q6P0Q8; [1]): 5.27
pKd (MPP2, Q14168; [1]): below the threshold

QGRWDHETIV [TMEM215, Q68D42]
pKd (LNX1_3, Q8TBB1; [2]): below the threshold
pKd (LDB3, O75112; [2]): 3.47
pKd (SNTB1, Q13884; [2]): 4.95
pKd (DLG3_1, Q92796; [2]): 4.34
pKd (LIN7B, Q9HAP6; [2]): below the threshold
pKd (MPP6, Q9NZW5; [2]): below the threshold
pKd (ARHGEF12, Q9NZN5-2; [2]): 3.71
pKd (NHERF3_1, Q5T2W1; [2]): 4.07
pKd (DLG2_2, Q15700; [2]): 4.07
pKd (TJP1_2, Q07157; [2]): 3.5
pKd (LRRC7, Q96NW7; [2]): 3.76
pKd (GRIP2_6, Q9C0E4; [2]): below the threshold
pKd (DLG2_3, Q15700; [2]): 4.53
pKd (PDZRN3_1, Q9UPQ7; [2]): 3.73
pKd (GRIP2_3, Q9C0E4; [2]): below the threshold
pKd (NHERF3_4, Q5T2W1; [2]): 3.52
pKd (HTRA4, P83105; [2]): 3.53
pKd (FRMPD2_1, Q68DX3; [2]): below the threshold
pKd (SCRIB_2, Q14160; [2]): 4.08
pKd (PDLIM1, O00151; [2]): below the threshold
pKd (TX1BP3, O14907; [2]): 4.31
pKd (Inadl_1, Q8NI35; [2]): below the threshold
pKd (GORASP2, Q9H8Y8; [2]): 4.3
pKd (GRIP2_5, Q9C0E4; [2]): below the threshold
pKd (MAST2, Q6P0Q8; [2]): 4.86
pKd (MPP2, Q14168; [2]): below the threshold
